These results are taken from paper PMC10269446.

In the data set the target is T1, rOmpR (OmpR-6xHis) (Klebsiella pneumoniae ATCC43816?) (UniProt A6TF28).
T1 sequence: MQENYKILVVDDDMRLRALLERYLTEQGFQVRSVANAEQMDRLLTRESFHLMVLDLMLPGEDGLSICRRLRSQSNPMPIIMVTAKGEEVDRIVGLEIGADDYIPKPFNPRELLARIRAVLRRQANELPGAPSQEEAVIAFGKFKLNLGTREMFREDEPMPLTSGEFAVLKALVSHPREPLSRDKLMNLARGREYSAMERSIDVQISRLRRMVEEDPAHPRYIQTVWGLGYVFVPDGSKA
The data set is described as follows: EMSA. A general note: In EMSA bound probe runs differently from free probe, usually more slowly.

On to “ACAGAACGCTGAAATGCACGGAAAGTTGTCCGTTGGAAAATAATTAAACATTTATTCACTATTTTGCTACTTATTGTTTGAAATCACGGGGCGTCACCGTATAATTTGTCCGCTTTTTGATGCTTGACTCTTCGTCTTAAAGGACGTTTTATACGACACGCGACATACCTCAAAGGGAGCAGG (double strand) [Patp2]”, for which the binding result was “no binding”.
